Values quoted from earlier work in PMC7294136.

Columns and labels:
RAGE (Homo sapiens) = RAGE (Homo sapiens) (UniProt Q15109); test: SPR
[1] = target: RAGE V domain (Homo sapiens) (UniProt Q15109)

For S100A4 (from UniProt P26447), the Kd (RAGE (Homo sapiens)) is listed as 138 nM.
In the case of S100B (from UniProt P04271), the Kd [1] is listed as 500 nM.
